Results: patent publication JP2019059762A (dated 2019)
Values joined by “and” are separate entries in the source; they are usually repeats but may differ in a detail not shown here. Equal values may be shown once.

Tests used:
Test in all cases: cell-based or functional assay
[1] = target: cynomolgus monkey IL-13 (cynomolgus monkey, UniProt Q0PW92 21-132)
[2] = target: recombinant human IL-13 (human, UniProt P35225 35-146, limits assumed)
[3] = target: T1, cynomolgus monkey IL-4 (cynomolgus monkey, UniProt P79339 25-153)
T1 sequence (looked up): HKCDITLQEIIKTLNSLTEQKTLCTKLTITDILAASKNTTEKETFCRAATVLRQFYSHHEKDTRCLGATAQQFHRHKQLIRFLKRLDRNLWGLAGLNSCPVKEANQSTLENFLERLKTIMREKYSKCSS

recombinant human IL-13, sequence (P35225 35-146 limits assumed): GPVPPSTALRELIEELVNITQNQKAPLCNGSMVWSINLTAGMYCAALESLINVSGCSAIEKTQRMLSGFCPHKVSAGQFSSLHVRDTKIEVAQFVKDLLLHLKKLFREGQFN
cynomolgus monkey IL-13, sequence (Q0PW92 entry or part of it): as the sequence (P35225 35-146 limits assumed) above, with G1S, R10K, M42V, S67N, H83R, L100V counted along it

B1: huTBTI3_2_1 (bispecific antibody)
chain 1: EVQLKESGPGLVAPGGSLSITCTVSGFSLTDSSINWVRQPPGKGLEWLGMIWGDGRIDYADALKSRLSISKDSSKSQVFLEMTSLRTDDTATYYCARDGYFPYAMDFWGQGTSVTVSSGGGGSGGGGSQVQLQQSGPELVKPGASVKISCKASGYSFTSYWIHWIKQRPGQGLEWIGMIDPSDGETRLNQRFQGRATLTVDESTSTAYMQLRSPTSEDSAVYYCTRLKEYGNYDSFYFDVWGAGTLVTVSSA
chain 2: DIVLTQSPASLAVSLGQRATISCRASESVDSYGQSYMHWYQQKAGQPPKLLIYLASNLESGVPARFSGSGSRTDFTLTIDPVQAEDAATYYCQQNAEDSRTFGGGTKLEIKGGGGSGGGGSDIQMTQSPASLSVSVGDTITLTCHASQNIDVWLSWFQQKPGNIPKLLIYKASNLHTGVPSRFSGSGSGTGFTLTISSLQPEDIATYYCQQAHSYPFTFGGGTKLEIKR
geometric mean IC50, inhibition of cIL-13-induced TF-1 cell proliferation [1]: 0.45 nM | IC50, inhibition of IL-4- and IL-13-induced LOX gene expression in IPF lung fibroblasts [2]: 3 nM and 6 nM | IC50, inhibition of IL-13-induced Stat6 phosphorylation in human whole blood monocytes, donor 002 [2]: 1.32 nM | IC50, inhibition of IL-13-induced Stat6 phosphorylation in human whole blood monocytes, donor 229 [2]: 3.68 nM | IC50, inhibition of IL-13-induced Stat6 phosphorylation in human whole blood monocytes, donor 245 [2]: 2.65 nM | IC50, suppression of IL-6 release from IPF lung fibroblasts (LL97A) stimulated with rhIL-13 + rhIL-4 together [2]: 7.8 nM | IC50, suppression of eotaxin release from IPF lung fibroblasts (LL97A) stimulated with rhIL-13 + rhIL-4 together [2]: 3.8 nM | geometric mean IC50, inhibition of hIL-13-induced TF-1 cell proliferation [2]: 3.02 nM | geometric mean IC50 of three experiments, inhibition of IL-13-induced Stat6 phosphorylation [2]: 2.34 nM | geometric mean IC50, inhibition of cIL-4-induced TF-1 cell proliferation [3]: 0.53 nM
